Experiment [1] deals with endogenous mouse NLRP3 (bone marrow-derived macrophages and splenocytes of C57BL/6 mice) (mouse, UniProt Q8R4B8 1-1033). The experiment can be described thus: immunoprecipitation from LPS- and ATP-treated BMDMs (FIG. 4D).
The target in experiment [2] is T1, Flag-NLRP3 wild-type (WT), full-length, transfected into 293T cells (UniProt Q96P20 1-1036).
T1 construct: also called wild-type (WT) NLRP3; not shown: Flag tag
Nature of the experiment: GST pulldown in transfected 293T cells (FIG. 3A).

The results in this text go back to patent publication US20220306707A1 (INDUSTRY UNIVERSITY COOPERATION FOUNDATION HANYANG …, published 2022).

Changes are numbered by the printed parent chain. Numbers in names are those of the source.

endogenous mouse NLRP3 (bone marrow-derived macrophages and splenocytes of C57BL/6 mice), sequence (Q8R4B8 whole entry): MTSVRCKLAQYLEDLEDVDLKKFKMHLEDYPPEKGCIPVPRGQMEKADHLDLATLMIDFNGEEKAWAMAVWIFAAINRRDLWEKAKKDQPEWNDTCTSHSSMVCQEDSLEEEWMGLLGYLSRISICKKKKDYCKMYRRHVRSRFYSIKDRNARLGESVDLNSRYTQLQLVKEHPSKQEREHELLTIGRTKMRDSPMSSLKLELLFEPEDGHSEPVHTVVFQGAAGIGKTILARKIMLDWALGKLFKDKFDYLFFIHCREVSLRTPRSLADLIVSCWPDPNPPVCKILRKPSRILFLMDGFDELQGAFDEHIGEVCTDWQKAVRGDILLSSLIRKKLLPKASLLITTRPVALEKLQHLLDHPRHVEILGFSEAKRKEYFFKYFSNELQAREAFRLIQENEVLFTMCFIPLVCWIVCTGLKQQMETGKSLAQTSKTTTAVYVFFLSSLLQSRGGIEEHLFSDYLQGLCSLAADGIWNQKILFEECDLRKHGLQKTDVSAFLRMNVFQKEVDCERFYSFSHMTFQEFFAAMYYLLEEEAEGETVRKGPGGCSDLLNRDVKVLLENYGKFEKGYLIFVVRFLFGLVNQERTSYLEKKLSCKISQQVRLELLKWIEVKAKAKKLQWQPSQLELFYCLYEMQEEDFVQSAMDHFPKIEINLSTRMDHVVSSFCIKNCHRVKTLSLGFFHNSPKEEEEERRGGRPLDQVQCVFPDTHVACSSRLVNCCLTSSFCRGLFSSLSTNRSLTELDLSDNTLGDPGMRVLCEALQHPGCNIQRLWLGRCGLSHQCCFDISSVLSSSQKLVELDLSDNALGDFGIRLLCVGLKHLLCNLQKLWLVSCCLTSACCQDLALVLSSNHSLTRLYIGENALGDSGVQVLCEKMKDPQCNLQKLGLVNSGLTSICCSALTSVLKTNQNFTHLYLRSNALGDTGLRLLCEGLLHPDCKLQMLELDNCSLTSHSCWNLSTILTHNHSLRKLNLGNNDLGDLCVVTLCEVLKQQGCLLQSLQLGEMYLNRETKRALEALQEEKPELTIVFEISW
T1 sequence (Q96P20 whole entry): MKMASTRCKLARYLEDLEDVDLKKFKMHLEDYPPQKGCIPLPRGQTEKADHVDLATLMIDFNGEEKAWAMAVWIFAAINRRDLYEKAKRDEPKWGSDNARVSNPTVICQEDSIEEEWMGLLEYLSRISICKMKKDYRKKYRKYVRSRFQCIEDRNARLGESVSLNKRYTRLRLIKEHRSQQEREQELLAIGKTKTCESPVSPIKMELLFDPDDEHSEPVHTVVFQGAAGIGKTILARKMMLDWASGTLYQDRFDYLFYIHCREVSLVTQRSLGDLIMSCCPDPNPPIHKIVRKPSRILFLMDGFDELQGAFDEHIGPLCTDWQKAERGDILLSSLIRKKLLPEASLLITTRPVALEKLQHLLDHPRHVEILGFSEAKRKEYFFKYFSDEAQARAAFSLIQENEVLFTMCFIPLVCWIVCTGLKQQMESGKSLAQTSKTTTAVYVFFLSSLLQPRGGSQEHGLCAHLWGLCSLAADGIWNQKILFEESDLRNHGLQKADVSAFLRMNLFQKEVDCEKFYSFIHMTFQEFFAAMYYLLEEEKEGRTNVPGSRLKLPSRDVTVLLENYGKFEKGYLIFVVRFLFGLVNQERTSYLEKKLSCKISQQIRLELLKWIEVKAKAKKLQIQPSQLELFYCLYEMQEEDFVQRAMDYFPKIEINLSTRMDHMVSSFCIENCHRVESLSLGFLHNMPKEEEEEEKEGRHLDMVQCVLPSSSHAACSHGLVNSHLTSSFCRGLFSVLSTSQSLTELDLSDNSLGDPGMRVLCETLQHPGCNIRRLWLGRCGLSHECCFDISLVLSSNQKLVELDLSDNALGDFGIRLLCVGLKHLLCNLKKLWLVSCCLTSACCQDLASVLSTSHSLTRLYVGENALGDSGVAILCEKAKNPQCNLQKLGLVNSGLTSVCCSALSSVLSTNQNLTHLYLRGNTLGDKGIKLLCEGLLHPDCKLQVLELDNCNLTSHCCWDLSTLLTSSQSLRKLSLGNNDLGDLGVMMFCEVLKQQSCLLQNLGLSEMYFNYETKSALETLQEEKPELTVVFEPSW

B1: recombinant GRA9C (residues 195-288) with N-terminal 6x His tag, purified from E. coli (other)
chain: HHHHHHMSVDPQCIMTREVVAQKLAGWTDNTHTATAGTPKKLLISFPSPDHIKEMVKEGYLPDNALERVLAGDFEGFSRTQMCLVSGRNRTECAFAEGQE
notes: also called rGRA9C; 6xHis-GRA9C
Take B1: the binding result in experiment [1] is recorded as “binds”.

B2: recombinant GRA9C^Q200L (residues 195-288, Q200L) with N-terminal 6x His tag, purified from E. coli (other)
chain: B1 chain with Q12L
notes: also called rGRA9C^Q200L
In the case of B2, the binding result in experiment [1] is recorded as “no binding”.

B3: GST-GRA9 C-terminal domain containing the Q200L mutation (other)
chain: MSVDPLCIMTREVVAQKLAGWTDNTHTATAGTPKKLLISFPSPDHIKEMVKEGYLPDNALERVLAGDFEGFSRTQMCLVSGRNRTECAFAEGQE
notes: also called GST-GRA9 C^Q200L; GST-GRA9 containing the Q200L mutation at the C-terminus
Take B3: in experiment [2], the binding result was “no binding”.
